Test results reported in PMC5464891, “Utilizing combinatorial engineering to develop Tie2 targeting antagonistic angiopoetin-2 ligands as candidates for anti-angiogenesis therapy” (Oncotarget, 2017).

B1: Ang2-BDWT, soluble (domain or fragment, human, UniProt O15123 281-496, looked up)
chain: FRDCAEVFKSGHTTNGIYTLTFPNSTEEIKAYCDMEAGGGGWTIIQRREDGSVDFQRTWKEYKVGFGNPSGEYWLGNEFVSQLTNQQRYVLKIHLKDWEGNEAYSLYEHFYLSSEELNYRIHLKGLTGTAGKISSISQPGNDFSTKDGDNDKCICKCSQMLTGGWWFDACGPSNLNGMYYPQRQNTNKFNGIKWYYWKGSGYSLKATTMMIRPADF
notes: N-linked carbohydrates removed with Endo Hf; also called wild-type Ang2-BD; parental Ang2-BD; source: Pichia pastoris GS115, purified from culture supernatant (HisTrap, Endo Hf treatment, Superdex 75); not shown: FLAG, N-terminal, kept

Experiments:
[1] = target: Ang2-BD_(C1.70), yeast-displayed (human) (UniProt O15123); test: flow cytometry on cells; Ang2-BD displayed on yeast, soluble Tie2-Fc in 20 mM Hepes pH 7.0, 150 mM NaCl, 1% BSA, 1 h at room temperature; detected with anti-human Fc FITC; binding MFI divided by expression MFI (c-Myc) and normalized to Ang2-BDWT
[2] = target: Ang2-BD_(C2.36), yeast-displayed (human) (UniProt O15123); test: as above
[3] = target: T1, rhTie2 extracellular domain (human, UniProt Q02763 23-748); test: SPR; ProteOn XPR36, rhTie2 extracellular domain amine-coupled to a GLC chip (2100 RU), Ang2-BD variants as analytes, 25°C, 20 mM Hepes pH 7.0, 150 mM NaCl, 1 mM CaCl2; steady state for Ang2-BDWT, two-state model for the variants; settings: both partners purified
T1 construct: receptor tyrosine kinase Tie2, recombinant human, extracellular domain; also called immobilized Tie2; recombinant soluble Tie2; source: bought: Sino Biological Inc
T1 sequence (Q02763 23-748): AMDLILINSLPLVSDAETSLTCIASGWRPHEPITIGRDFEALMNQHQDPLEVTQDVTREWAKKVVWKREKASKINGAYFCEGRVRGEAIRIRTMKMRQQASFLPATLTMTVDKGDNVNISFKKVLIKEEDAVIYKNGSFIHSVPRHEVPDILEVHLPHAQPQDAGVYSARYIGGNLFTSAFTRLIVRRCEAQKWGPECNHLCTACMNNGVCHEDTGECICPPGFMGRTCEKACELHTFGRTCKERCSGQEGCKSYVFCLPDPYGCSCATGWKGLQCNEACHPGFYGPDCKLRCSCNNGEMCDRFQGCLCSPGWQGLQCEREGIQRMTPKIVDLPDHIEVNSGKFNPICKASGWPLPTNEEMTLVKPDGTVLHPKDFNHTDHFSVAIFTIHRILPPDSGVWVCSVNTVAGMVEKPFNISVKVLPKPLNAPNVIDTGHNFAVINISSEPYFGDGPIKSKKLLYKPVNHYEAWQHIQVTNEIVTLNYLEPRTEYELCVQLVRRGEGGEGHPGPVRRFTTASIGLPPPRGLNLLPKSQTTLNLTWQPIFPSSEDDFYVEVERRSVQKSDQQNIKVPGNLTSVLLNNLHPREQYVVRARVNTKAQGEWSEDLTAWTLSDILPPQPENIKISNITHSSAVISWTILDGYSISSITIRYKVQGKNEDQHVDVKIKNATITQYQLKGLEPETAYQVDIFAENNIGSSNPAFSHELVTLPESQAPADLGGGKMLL

Row | Molecule | fold increase in affinity relative to Ang2-BDWT [1] [fold] | fold increase in binding affinity as compared to Ang2-BDWT [2] [fold] | Kd [3] [nM]
1 | Recombinant human Tie2 (Ala23-Lys745) Fc fusion, soluble Tie2-Fc (from UniProt Q02763 23-745) | 2.5 | 17 | 
2 | B1 |  |  | 434
